Consider one substance from article PMC9371684.

Assay [1] addresses v5-tagged full-length GIGYF2 (1–1,320) (human). In words: proximity ligation.
Assay [2] has the same target. In words: proximity ligation; cells cotransfected with v5-GIGYF2, HA-4EHP and FLAG-empty vector; fixed 24 h after transfection; PLA with v5 and HA antibodies.

Chain of v5-tagged full-length GIGYF2 (1–1,320) (human) (Q6Y7W6 2-1299): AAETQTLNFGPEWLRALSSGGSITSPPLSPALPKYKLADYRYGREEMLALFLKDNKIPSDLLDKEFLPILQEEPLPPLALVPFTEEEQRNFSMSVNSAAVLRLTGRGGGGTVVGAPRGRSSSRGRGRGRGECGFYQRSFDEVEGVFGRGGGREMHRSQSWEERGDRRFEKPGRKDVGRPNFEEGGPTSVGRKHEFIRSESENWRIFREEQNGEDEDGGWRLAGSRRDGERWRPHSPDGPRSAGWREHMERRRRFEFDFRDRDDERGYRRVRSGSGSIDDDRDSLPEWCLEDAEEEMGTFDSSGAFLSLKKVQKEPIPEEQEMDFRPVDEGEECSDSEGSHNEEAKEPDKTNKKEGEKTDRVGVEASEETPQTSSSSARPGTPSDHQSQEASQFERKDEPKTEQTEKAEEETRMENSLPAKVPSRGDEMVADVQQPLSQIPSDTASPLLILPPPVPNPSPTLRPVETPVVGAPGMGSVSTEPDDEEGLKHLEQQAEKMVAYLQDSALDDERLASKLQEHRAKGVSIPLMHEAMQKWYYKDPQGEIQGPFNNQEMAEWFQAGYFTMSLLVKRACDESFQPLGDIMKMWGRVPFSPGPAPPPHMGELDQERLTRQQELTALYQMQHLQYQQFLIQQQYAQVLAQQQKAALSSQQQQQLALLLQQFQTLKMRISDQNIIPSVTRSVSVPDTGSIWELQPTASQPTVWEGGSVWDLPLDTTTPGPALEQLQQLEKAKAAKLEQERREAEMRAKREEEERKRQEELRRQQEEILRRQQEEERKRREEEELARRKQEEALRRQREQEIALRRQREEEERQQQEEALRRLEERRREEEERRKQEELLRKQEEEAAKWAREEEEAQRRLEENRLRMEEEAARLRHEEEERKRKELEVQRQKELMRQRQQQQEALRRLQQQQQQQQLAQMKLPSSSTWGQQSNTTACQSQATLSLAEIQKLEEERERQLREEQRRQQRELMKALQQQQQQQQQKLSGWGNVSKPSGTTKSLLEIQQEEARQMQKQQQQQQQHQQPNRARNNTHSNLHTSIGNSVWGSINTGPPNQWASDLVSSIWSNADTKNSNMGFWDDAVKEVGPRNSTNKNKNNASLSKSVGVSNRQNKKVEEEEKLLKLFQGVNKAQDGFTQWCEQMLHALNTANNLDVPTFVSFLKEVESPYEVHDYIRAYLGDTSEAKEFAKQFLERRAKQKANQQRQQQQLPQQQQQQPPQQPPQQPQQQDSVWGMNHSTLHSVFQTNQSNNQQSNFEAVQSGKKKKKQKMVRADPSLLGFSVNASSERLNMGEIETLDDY

Regarding “HA-tagged 4EHP (from UniProt O60573 1-245)”, the figures for the PLA punctate per cell (punctate per cell) in assay [1] and in assay [2] were 61 and 19.8, respectively.
